# Experimental data taken from patent US6855515 (MERCK, dated 2005).
# T1: caspase-1 (UniProt P29466 120-297; P29466 317-404, limits assumed)
# T1 sequence (looked up) 1: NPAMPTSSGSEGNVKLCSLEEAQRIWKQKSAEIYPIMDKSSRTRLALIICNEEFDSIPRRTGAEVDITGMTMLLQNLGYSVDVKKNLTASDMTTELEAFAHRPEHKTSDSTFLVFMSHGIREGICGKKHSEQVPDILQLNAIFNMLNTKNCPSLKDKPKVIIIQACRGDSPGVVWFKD
# T1 sequence (looked up) 2: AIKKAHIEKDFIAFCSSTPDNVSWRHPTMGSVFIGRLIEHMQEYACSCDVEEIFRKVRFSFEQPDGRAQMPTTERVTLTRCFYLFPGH
# T2: caspase-10 (UniProt Q92851 220-521, limits assumed)
# T2 sequence (looked up): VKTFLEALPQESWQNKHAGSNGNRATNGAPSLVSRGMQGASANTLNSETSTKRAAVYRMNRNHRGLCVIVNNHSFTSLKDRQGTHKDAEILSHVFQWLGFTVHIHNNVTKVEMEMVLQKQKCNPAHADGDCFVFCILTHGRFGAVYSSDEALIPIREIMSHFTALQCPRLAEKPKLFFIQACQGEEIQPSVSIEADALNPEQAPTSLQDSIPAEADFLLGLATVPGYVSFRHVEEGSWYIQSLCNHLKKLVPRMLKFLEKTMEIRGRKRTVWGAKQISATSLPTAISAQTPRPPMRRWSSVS
# T3: caspase-7 (UniProt P55210 24-198; P55210 207-303, limits assumed)
# T3 sequence (looked up) 1: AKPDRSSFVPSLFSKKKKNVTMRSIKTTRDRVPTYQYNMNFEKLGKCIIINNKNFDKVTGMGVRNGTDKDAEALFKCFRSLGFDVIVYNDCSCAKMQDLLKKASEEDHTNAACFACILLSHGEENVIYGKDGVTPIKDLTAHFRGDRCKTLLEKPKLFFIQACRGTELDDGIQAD
# T3 sequence (looked up) 2: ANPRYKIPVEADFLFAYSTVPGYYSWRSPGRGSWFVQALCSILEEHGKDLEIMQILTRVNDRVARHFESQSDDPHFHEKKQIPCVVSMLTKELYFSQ
# How the values were obtained:
# Experiment in all cases: Ki printed in running text; no assay described
# [1] = target: T1, caspase-1
# [2] = target: T2, caspase-10
# [3] = target: T3, caspase-7
# [4] = target: T4, caspase-8 (UniProt Q14790 217-374; Q14790 385-479, limits assumed)
# T4 construct: also called purified caspase-8
# T4 sequence (Q14790 217-374 limits assumed, form in doubt, chain 1 of 2): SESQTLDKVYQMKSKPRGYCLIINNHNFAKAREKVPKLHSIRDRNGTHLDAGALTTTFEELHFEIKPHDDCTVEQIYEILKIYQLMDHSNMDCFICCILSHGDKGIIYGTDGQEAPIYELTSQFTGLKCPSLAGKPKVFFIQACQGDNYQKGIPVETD
# T4 sequence (Q14790 385-479 limits assumed, form in doubt, chain 2 of 2): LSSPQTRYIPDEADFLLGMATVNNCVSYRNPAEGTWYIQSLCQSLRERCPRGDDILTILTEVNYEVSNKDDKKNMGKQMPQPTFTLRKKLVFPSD
Ki [1],Ki [2],Ki [3],Ki [4],Binder
0.6 nM,408 nM,,,"Ac-YVAD-aldehyde [Ac-YVAD-CHO, N-(N-Ac-Tyr-Val-Ala)-3-amino-4-oxobutanoic acid]"
17 nM,12 nM,1 nM,0.92 nM,"Ac-DEVD-aldehyde [Ac-DEVD-CHO, N-(N-Ac-Asp-Glu-Val)-3-amino-4-oxobutanoic acid]"
